Experiment [1] concerns the target T1, FLAG-tagged human angiotensin II type I receptor (FLAG-AT1R) (human).
T1 construct: also called WT receptor; pMAS85; source: Expi293F TetR, transfected, purified in LMNG/CHS (M1-αFLAG resin, SEC); also Expi293F TetR cells stably expressing FLAG-AT1R under a tetracycline-inducible promoter, on intact cells; not shown: FLAG, N-terminal, kept
T1 chain: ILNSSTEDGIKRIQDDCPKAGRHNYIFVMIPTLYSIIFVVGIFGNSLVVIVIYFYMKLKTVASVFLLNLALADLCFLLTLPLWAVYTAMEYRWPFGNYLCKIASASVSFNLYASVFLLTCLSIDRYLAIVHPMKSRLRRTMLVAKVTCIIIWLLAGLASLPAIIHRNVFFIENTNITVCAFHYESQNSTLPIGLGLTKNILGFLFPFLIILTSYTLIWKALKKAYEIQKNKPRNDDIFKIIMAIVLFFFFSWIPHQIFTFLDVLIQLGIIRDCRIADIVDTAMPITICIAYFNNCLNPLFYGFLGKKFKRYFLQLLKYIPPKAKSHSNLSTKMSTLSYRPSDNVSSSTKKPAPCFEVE
Nature of the experiment: flow cytometry on cells; soluble nanobody titrated on Expi293F TetR cells expressing FLAG-AT1R, unliganded receptor; 20 mM Hepes pH 7.4, 150 mM NaCl, 0.1% BSA, 4 °C; detected with αV5-AlexaFluor647. To be noted: one partner purified. (Flow cytometry measures light scatter and fluorescence of single cells or particles in a stream.)

Experiment [2] has as its target T1, FLAG-tagged human angiotensin II type I …. Nature of the experiment: flow cytometry on cells; soluble nanobody titrated on Expi293F TetR cells expressing FLAG-AT1R, receptor pre-bound to losartan (10 μM, 5 μM in washes); 20 mM Hepes pH 7.4, 150 mM NaCl, 0.1% BSA, 4 °C; detected with αV5-AlexaFluor647. The settings on record: one partner purified.
The target in experiment [3] is T2, FLAG-tagged wild-type human angiotensin II type I receptor (FLAG-AT1R) (Homo sapiens, UniProt P30556).
T2 construct: angiotensin II type I receptor (AT1R), human, wild type; The signalling assays used FLAG-AT1R in HEK293T or HTLA cells; also called WT receptor; source: Expi293F TetR, transfected, purified in LMNG/CHS (M1-αFLAG resin, SEC); also on intact Expi293F TetR cells stably expressing FLAG-AT1R under a tetracycline-inducible promoter; not shown: FLAG, N-terminal, kept
Briefly: flow cytometry on cells; purified nanobody (single point 250 or 500 nM, or titrated) on Expi293F TetR cells expressing FLAG-AT1R preincubated with 10 μM losartan at 4 °C for 30 min; detected with αV5-AlexaFluor647; 20 mM Hepes pH 7.4, 150 mM NaCl, 0.1% BSA. To be noted: one partner purified.

In experiment [4] the target is T2, FLAG-tagged wild-type human angiotensin ….
Experiment [5] has the same target. Nature of the experiment: flow cytometry on cells; nanobody displayed on yeast; 100 nM unliganded detergent-purified FLAG-AT1R in solution, detected with fluorophore-conjugated M1-αFLAG; 4 °C, 30 min; 20 mM Hepes pH 7.5, 150 mM NaCl, 2.8 mM CaCl2, 0.05% LMNG, 0.005% CHS. To be noted: one partner purified.
The target of experiment [6] is FLAG-tagged wild-type human angiotensin II type I receptor (FLAG-AT1R) (human) (UniProt P30556). Nature of the experiment: flow cytometry on cells; purified nanobody (single point 250 nM, or titrated) on Expi293F TetR cells expressing FLAG-AT1R preincubated with 10 μM olmesartan at 4 °C for 30 min; detected with αV5-AlexaFluor647; 20 mM Hepes pH 7.4, 150 mM NaCl, 0.1% BSA.

For experiment [7], the target named is T2, FLAG-tagged wild-type human angiotensin …. Briefly: flow cytometry on cells; purified nanobody (single point 250 or 500 nM, or titrated) on Expi293F TetR cells expressing FLAG-AT1R, unliganded; 1 h; detected with αV5-AlexaFluor647; 20 mM Hepes pH 7.4, 150 mM NaCl, 0.1% BSA. The settings on record: one partner purified.

Where a chain is given by its changes, count along the chain named. Names and notes keep the numbering of the source. Like-named read-outs stand apart in the source and are kept apart here.

T2 sequence (P30556 whole entry): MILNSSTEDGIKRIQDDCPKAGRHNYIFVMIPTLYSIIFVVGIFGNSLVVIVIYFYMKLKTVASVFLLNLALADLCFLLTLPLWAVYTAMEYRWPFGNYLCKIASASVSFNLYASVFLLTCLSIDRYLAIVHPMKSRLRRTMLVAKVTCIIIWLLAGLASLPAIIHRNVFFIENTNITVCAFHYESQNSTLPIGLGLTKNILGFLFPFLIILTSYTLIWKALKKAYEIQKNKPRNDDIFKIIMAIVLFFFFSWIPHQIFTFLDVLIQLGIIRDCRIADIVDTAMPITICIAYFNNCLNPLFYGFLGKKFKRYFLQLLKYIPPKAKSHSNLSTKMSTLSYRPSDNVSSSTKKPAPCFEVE

B1: AT118-H CDR1-AT206 CDR2 CDR3 chimeric nanobody (AT118-AT206) (VHH)
VHH: QVQLQESGGGLVQAGGSLRLSCAASDYIYRRYRMGWYRQAPGKEREFVAGIGVGTTTNYADSVKGRFTISRDNAKNTVYLQMNSLKPEDTAVYYCAAYNYFPRSIVYYYVYWGQGTQVTVSS
notes: AT206 with its CDR1 replaced by CDR1 of AT118-H and the G26D stabilising substitution; also called AT118-H G26D CDR1, AT206 CDR 2&3; source: E. coli BL21(DE3), periplasm, purified (Ni-NTA); not shown: V5, C-terminal, kept
As to B1, the Kd in experiment [1] turned out to be 206 nM; in experiment [2] it was 153 nM.

B2: AT118-H CDR1-AT206 CDR2 CDR3 chimeric nanobody (AT118-AT206) (VHH)
VHH: B1 VHH
notes: as the chain of AT206 with CDR1 replaced by CDR1 of AT118-H and the stabilising substitution G26D; also called AT118-AT206 chimera; source: E. coli BL21(DE3), periplasm, purified (Ni-NTA); not shown: V5, C-terminal, kept
For the molecule B2, the “fold increase in affinity over AT206” value in experiment [3] was 2 fold.

B3: AT211 (VHH)
VHH: QVQLQESGGGLVQAGGSLRLSCAASGTISHSAGMGWYRQAPGKERELVAAISGGTITNYADSVKGRFTISRDNAKNTVYLQMNSLKPEDTAVYYCAALGYWRRAGGTYYVVHYYWGQGTQVTVSS
notes: synthetic nanobody AT211; source: E. coli BL21(DE3), periplasm, purified (Ni-NTA); not shown: V5, C-terminal, kept
B3: the binding result in experiment [3] is “binds”.

B4: AT205 (VHH)
VHH: QVQLQESGGGLVQAGGSLRLSCAASGYIFYDSVMGWYRQAPGKEREFVAAIAAGSSTNYADSVKGRFTISRDNAKNTVYLQMNSLKPEDTAVYYCGEYYNWLHQYWGQGTQVTVSS
notes: synthetic nanobody AT205; source: E. coli BL21(DE3), periplasm, purified (Ni-NTA); not shown: V5, C-terminal, kept
Turning to B4, in experiment [3], the binding result is “binds”.

B5: AT201 (VHH)
VHH: QVQLQESGGGLVQAGGSLRLSCAASGTISDPPYMGWYRQAPGKERELVAAIDVGANTYYADSVKGRFTISRDNAKNTVYLQMNSLKPEDTAVYYCAVEYDAQVPHQYWGQGTQVTVSS
As to B5, the binding result in experiment [4] was “binds”.

B6: AT212 (VHH)
VHH: QVQLQESGGGLVQAGGSLRLSCAASGSISNYKYMGWYRQAPGKERELVATIGGGATTNYADSVKGRFTISRDNAKNTVYLQMNSLKPEDTAVYYCAAVRAGYSLYYPYFYYWGQGTQVTVSS
Take B6: in experiment [4], the binding result was “binds”.

B7: AT213 (VHH)
VHH: QVQLQESGGGLVQAGGSLRLSCAASGYIFYGATMGWYRQAPGKEREFVAGINYGGSTNYADSVKGRFTISRDNAKNTVYLQMNSLKPEDTAVYYCAVWDTYAQRRSSYFVYWGQGTQVTVSS
Take B7: in experiment [4], the binding result is given as “binds”.

B8: nanobody AT206 (VHH)
VHH: QVQLQESGGGLVQAGGSLRLSCAASGSISYYRMGWYRQAPGKEREFVAGIGVGTTTNYADSVKGRFTISRDNAKNTVYLQMNSLKPEDTAVYYCAAYNYFPRSIVYYYVYWGQGTQVTVSS
notes: source: E. coli BL21(DE3), periplasm, purified (Ni-NTA); not shown: V5, C-terminal, kept
In experiment [2], B8 came in with a Kd of 363 nM.

B9: AT206, yeast-displayed (VHH)
VHH: B8 VHH
notes: synthetic nanobody AT206; also in the deposited structures; the anchor is not described here
For B9, in experiment [5], the binding result is recorded as “binds”.

B10: AT206 (VHH)
VHH: B8 VHH
notes: synthetic nanobody AT206; also in the deposited structures; also called parent clone of AT118-AT206; source: E. coli BL21(DE3), periplasm, purified (Ni-NTA); not shown: V5, C-terminal, kept
With B10, the binding result in experiment [3] is reported as “binds”.

B11: AT210 (VHH)
VHH: QVQLQESGGGLVQAGGSLRLSCAASGTISSWSFMGWYRQAPGKEREFVATIAPGSSTNYADSVKGRFTISRDNAKNTVYLQMNSLKPEDTAVYYCAVYYGVPRFHVYWGQGTQVTVSS
For B11, the binding result in experiment [4] was “binds”.

B12: AT208 (VHH)
VHH: QVQLQESGGGLVQAGGSLRLSCAASGYIFTRYRMGWYRQAPGKEREFVAAIGDGGTTNYADSVKGRFTISRDNAKNTVYLQMNSLKPEDTAVYYCAAYYVSRPNYGTIYVYWGQGTQVTVSS
notes: synthetic nanobody AT208; source: E. coli BL21(DE3), periplasm, purified (Ni-NTA); not shown: V5, C-terminal, kept
Take B12: the binding result in experiment [3] is listed as “binds”.

B13: AT203 (VHH)
VHH: QVQLQESGGLVQAGGSLRLSCAASGYISRSYDMGWYRQAPGKERELVASINEGSTTNYADSVKGRFTISRDNAKNTVYLQMNSLKPEDTAVYYCAAYTYGHGDYHVYWGQGTQVTVSS
For B13, in experiment [4], the binding result is listed as “binds”.

B14: AT207 (VHH)
VHH: QVQLQESGGGLVQAGGSLRLSCAASGYIFTHSSMGWYRQAPGKEREFVAAITVGANTNYADSVKGRFTISRDNAKNTVYLQMNSLKPEDTAVYYCAAYNPFYPVYIYWGQGTQVTVSS
notes: synthetic nanobody AT207; source: E. coli BL21(DE3), periplasm, purified (Ni-NTA); not shown: V5, C-terminal, kept
On to B14, for which, in experiment [3], the binding result was “binds”.

B15: AT209 (VHH)
VHH: QVQLQESGGGLVQAGGSLRLSCAASGYIFYRYSMGWYRQAPGKEREFVAGISYGATTNYADSVKGRFTISRDNAKNTVYLQMNSLKPEDTAVYYCAAWGGRTLYFVYWGQGTQVTVSS
Molecule B15 displayed a dissociation constant Kd in experiment [6] of 100 nM.

B16: AT209 L103D (VHH)
VHH: B15 VHH with L103D
notes: as the chain of AT209 with L103D in CDR3; also called AT209 L103D^CDR3; AT209 L103D variant; source: E. coli BL21(DE3), periplasm, purified (Ni-NTA); not shown: V5, C-terminal, kept
As to B16, the binding result in experiment [7] is given as “binds”.

B17: nanobody AT209 L103D (VHH)
VHH: B15 VHH with L103D
notes: the substitution L103D is still to be applied; also called AT209 L103D^CDR3; source: E. coli BL21(DE3), periplasm, purified (Ni-NTA); not shown: V5, C-terminal, kept
As to B17, binding in experiment [1] was characterised by a dissociation constant (Kd) of 144 nM.

As usually defined, the Kd is the concentration at which binding is half-saturated.

For the origin of these results see PMC11929449, “Epitope-directed selection of GPCR nanobody ligands with evolvable function” (Proceedings of the National Academy of Sciences of the …, 2025).
